{"source": "patent US5891438", "key": {"[1]": {"target": "human tonsillar B cells (CD20+ / CD19+, surface Ig)", "assay": "flow cytometry, dual staining with biotinylated bacterial antigen"}, "[2]": {"target": "human tonsillar B cells (CD20+ / CD19+, surface Ig)", "assay": "flow cytometry, biotinylated mod-SpA on tonsillar B cells; the pair that the inhibitors of Table 5 block"}}}
{"substance": "staphylococcal protein A (SpA), purified recombinant form (from UniProt P38507)", "values": [{"measurement": "SpA Binding (share of CD20 tonsillar cells)", "setting": "[1]", "result": 29, "unit": "%"}]}
{"substance": "SpA modified by hyperiodination to destroy IgG Fc binding activity (mod-SpA) (from UniProt P38507)", "values": [{"measurement": "Binding (proportion of the total B cells bound by mod-SpA)", "setting": "[2]", "result": 15}]}
{"substance": "Protein G (from UniProt P19909)", "values": [{"measurement": "Protein G Binding (share of CD20 tonsillar cells)", "setting": "[1]", "result": 9, "unit": "%"}]}
